Positions count from the first letter of the chain named. Names and notes keep the numbering of the source.
B1: AfUGMY104A (UDP-galactopyranose mutase from Aspergillus fumigatus, Y104A on the K344A/K345A background) (enzyme)
chain: MTHPDISVDVLVIGAGPTGLGAAKRLNQIDGPSWMIVDSNETPGGLASTDVTPEGFLYDVGGHVIFSHYKYFDDCLDEALPKEDDWYTHQRISYVRCQGQWVPAPFQNNISMLPKEEQVKCIDGMIDAALEARVANTKPKTFDEWIVRMMGTGIADLFMRPYNFKVWAVPTTKMQCAWLGERVAAPNLKAVTTNVILGKTAGNWGPNATFRFPARGGTGGIWIAVANTLPKEKTRFGEKGKVTKVNANNKTVTLQDGTTIGYKKLVSTMAVDFLAEAMNDQELVGLTKQLFYSSTHVIGVGVRGSRPERIGDKCWLYFPEDNCPFYRATIFSNYSPYNQPEASAALPTMQLADGSRPQSTEAKEGPYWSIMLEVSESSMKPVNQETILADCIQGLVNTEMLKPTDEIVSTYHRRFDHGYPTPTLEREGALTQILPKLQDKDIWSRGRFGSWRYEVGNQDHSFMLGVEAVDNIVNGAVELTLNYPDFVNGRQNTERRLVDGAQVFAKSKAQ
B2: AfUGMQ107A (UDP-galactopyranose mutase from Aspergillus fumigatus, Q107A on the K344A/K345A background) (enzyme)
chain: B1 chain with A104Y, Q107A
B3: AfUGMN207A (UDP-galactopyranose mutase from Aspergillus fumigatus, N207A on the K344A/K345A background) (enzyme)
chain: B1 chain with A104Y, N207A
B4: AfUGMY317A (UDP-galactopyranose mutase from Aspergillus fumigatus, Y317A on the K344A/K345A background) (enzyme)
chain: B1 chain with A104Y, Y317A

Target: the molecule itself
Assay: crystal structure

Protein	stoichiometry N
B1	4
B2	4
B3	4
B4	4

Reference: paper PMC4270374 (Biochemistry, 2014)
